For two substances, stoichiometry N results are on record in article PMC11588112.

The stoichiometry N is a count of units in the complex or per binding partner.

The target in experiment [1] is mumps postfusion F glycoprotein trimer (unstabilized 476-GCN4) (mumps virus). Nature of the experiment: negative-stain EM; purified glycoprotein designs alone, 2D class averages.
Experiment [2] concerns the target prefusion-stabilized mumps fusion (F) glycoprotein trimer, genotype G (V206C-A223C with 476-GCN4 and 101KRF-101GGG) (mumps virus, genotype G). The experiment is described as above.
Experiment [3] has the same target. Nature of the experiment: crystal structure.

On to “mumps postfusion F glycoprotein trimer (unstabilized 476-GCN4)”, for which the stoichiometry N in experiment [1] was determined as 3.

In the case of “prefusion-stabilized mumps fusion (F) glycoprotein trimer, genotype G (V206C-A223C with 476-GCN4 and 101KRF-101GGG)”, the stoichiometry N in experiment [2] and in experiment [3] was 3 each time.
